Reference: paper PMC5069464

Legend:
Conditions in all cases: glycan lost; control: wild type
[1] = high-throughput patch (IonWorks Barracuda), peak current
[2] = whole-cell tail currents, Boltzmann fit
[3] = cell-attached single-channel recording, tsA201
[4] = whole-cell pre-pulse protocol, Boltzmann fit
[5] = puromycin chase, >250 kDa band at 48 hr

hCaV3.3 α1 subunit: R1346H
other: channel current, other: median peak current [1]: decreases, 0.56 vs 1.30 | other: voltage dependence of activation, other: V1/2-negative [2]: no change, −37.6 ± 0.99 vs −40.0 ± 0.98 | other: single-channel conductance, other: conductance [3]: no change, 13.7 ± 0.6 vs 14.0 ± 0.8 | other: voltage dependence of inactivation, other: V1/2 [4]: no change, −69.4 ± 1.4 vs −67.1 ± 0.89 | degradation_or_half_life, other: fraction of pre-puromycin level [5]: no change, 0.50 ± 0.12 vs 0.36 ± 0.08
